These are literature values, as cited in patent publication US20070166367A1, “Adept or gdept producing acetaldehyde” (priority 2004, published 2007).

Read-outs that look alike come from different tables or passages of the source.

B1: Human B2: human alcohol dehydrogenase β2, atypical liver class I enzyme, B2B2 homodimer (protein, UniProt P00325 2-375, looked up)
All-trans-retinol …: STAGKVIKCKAAVLWEVKKPFSIEDVEVAPPKAYEVRIKMVAVGICHTDDHVVSGNLVTPLPVILGHEAAGIVESVGEGVTTVKPGDKVIPLFTPQCGKCRVCKNPESNYCLKNDLGNPRGTLQDGTRRFTCRGKPIHHFLGTSTFSQYTVVDENAVAKIDAASPLEKVCLIGCGFSTGYGSAVNVAKVTPGSTCAVFGLGGVGLSAVMGCKAAGAARIIAVDINKDKFAKAKELGATECINPQDYKKPIQEVLKEMTDGGVDFSFEVIGRLDTMMASLLCCHEACGTSVIVGVPPASQNLSINPMLLLTGRTWKGAVYGGFKSKEGIPKLVADFMAKKFSLDALITHVLPFEKINEGFDLLHSGKSIRTVLTF
modifications: beta2 allele homodimer
Regarding B1, under “'physiological' ethanol concentrations”, the “enzymatic rate relative to the usual human ADH enzymes” value is “at least 16 fold”. Besides, the Km (for ethanol) is 940 µM. The “Vmax relative to the usual human alpha, beta and gamma variants” value (pH 7.5) was “(Note at pH 7.5 the Vmax of beta 2 is 5-40 times higher that the usual human alpha, beta and gamma variants)”.

B2: Human B1: usual human alcohol dehydrogenase B1 isoenzyme (protein, UniProt P00325 2-375, looked up)
All-trans-retinol …: B1 All-trans-retinol …
With B2, the Michaelis-Menten constant (Km) is 49 µM.

B3: Human class IV: human class IV alcohol dehydrogenase (protein, UniProt P40394 1-386, looked up)
All-trans-retinol …: MFAEIQIQDKDRMGTAGKVIKCKAAVLWEQKQPFSIEEIEVAPPKTKEVRIKILATGICRTDDHVIKGTMVSKFPVIVGHEATGIVESIGEGVTTVKPGDKVIPLFLPQCRECNACRNPDGNLCIRSDITGRGVLADGTTRFTCKGKPVHHFMNTSTFTEYTVVDESSVAKIDDAAPPEKVCLIGCGFSTGYGAAVKTGKVKPGSTCVVFGLGGVGLSVIMGCKSAGASRIIGIDLNKDKFEKAMAVGATECISPKDSTKPISEVLSEMTGNNVGYTFEVIGHLETMIDALASCHMNYGTSVVVGVPPSAKMLTYDPMLLFTGRTWKGCVFGGLKSRDDVPKLVTEFLAKKFDLDQLITHVLPFKKISEGFELLNSGQSIRTVLTF
With B3, the Km (for ethanol) was 37000 µM.
